Measured values as given in US20100196395A1 (Boehringer Ingelheim, published 2010).

Tests used:
[1] = target: recombinant human insulin (human, UniProt P01308 25-54; P01308 90-110); assay: ELISA titration of the IgG1 on coated human insulin, OD 450
[2] = target: T1, rat IGF-1 (rat, UniProt P08025 49-118); assay: ELISA titration of the IgG1 on coated rat IGF-1, OD 450
T1 construct: bought reagent

[3] = target: T2, murine IGF-2 (murine, UniProt P09535 25-91); assay: ELISA titration of the IgG1 on coated murine IGF-2, OD 450
T2 construct: bought reagent; also called mouse IGF-2

[4] = target: T3, biotinylated IGF-1 (UniProt P05019 49-118, biotinylated (site not stated)); assay: competition ELISA: antibody titrated against biotinylated IGF-1 binding to coated IGF-1R; antibody 40183; mass concentration
T3 construct: also called IGF-1 ligand

[5] = target: T3, biotinylated IGF-1; assay: competition ELISA: antibody blocks binding of biotinylated IGF-1 to coated IGF-1R, fluorescence readout
Experimental: To identify IGF antibodies that neutralize the ability of IGF-1 and IGF-2 to bind to the IGF-1R, an ELISA is established by coating plates with 1.5 μg/ml recombinant human IGF-1R (R&D Systems) which allows the binding of biotinylated IGF-1 and biotinylated IGF-2. Bound IGF-1 or IGF-2 is detected using alkaline phosphatase-conjugated streptavidin (1:10,000 dilution) (Roche). […] Antibody Fab fragments that block the binding of biotinylated ligand are identified by a reduction in fluorometric signal.

[6] = target: T4, recombinant human IGF-2 (human, UniProt P01344 25-91); assay: ELISA titration of the IgG1 on coated human IGF-2, OD 450
T4 construct: mature; also called insulin-like growth factor-2

[7] = target: T5, murine IGF-1 (murine, UniProt P05017 49-118); assay: ELISA titration of the IgG1 on coated murine IGF-1, OD 450
T5 construct: bought reagent; also called mouse IGF-1

[8] = target: T6, rat IGF-2 (rat, UniProt P01346 25-91); assay: ELISA titration of the IgG1 on coated rat IGF-2, OD 450
T6 construct: bought reagent

[9] = target: T5, murine IGF-1; assay: SPR (Biacore), antibody capture method, IGF antigen injected
Experimental: (§1) The sensor chip is coated with approximately 1000 RU of the reference antibody in flow cell 1 and approximately 1000 RU of a rabbit-anti-human Fc-gamma-specific antibody in flow cell 2 using the coupling reagents from an amine coupling kit. A target of 1000 RU is set in the surface preparation wizard of the Biacore 3000 software at a flow rate of 5 μl/min. Running buffer used is HBS-EP. […] The IGF antigens are diluted to 500, 250, 125, 62.5 and 31.3 nM in running buffer (HCB) and the different antigen dilutions are run singly over Fc1 and Fc2 with random order. Blank runs using running buffer only are run in-between. A blank run curve is subtracted from each binding curve before affinity analysis. Data evaluation is performed using the BIAevaluation software (version 4.1, Biacore, Freiburg, Germany). The dissociation and association phases of the kinetics are fitted separately. For the separate fit of the kdiss values a time-frame of the initial 200-300 seconds in the dissociation phase is used (range of steady decrease of signal). For the separate fit of the kₐₛₛ values, initial time frames of approx 100 seconds are used (range of steady increase of signal) and for calculation the individual kdiss values are used with the 1:1 Langmuir association model. The average values with the standard deviations of the kinetic data together with the corresponding dissociation (KD) and association (KA) constants are calculated.
(§2) The analysis is initially performed by capturing the IGF antibodies on the sensor chip and injecting a range of antigen concentrations, thereby eliminating the possibility of an avidity effect.

[10] = target: T2, murine IGF-2; assay: as above
Experimental: as §1, §2

[11] = target: T7, recombinant human IGF-1 (human, UniProt P05019 49-118); assay: as above
T7 construct: mature; also called insulin-like growth factor-1
Experimental: as §1, §2

[12] = target: T4, recombinant human IGF-2; assay: as above
Experimental: as §1, §2

[13] = target: T6, rat IGF-2; assay: as above
Experimental: as §1, §2

[14] = target: T1, rat IGF-1; assay: as above
Experimental: as §1, §2

[15] = target: T7, recombinant human IGF-1; assay: SPR (Biacore), IGF coating method, bivalent antibody injected (avidity)
Experimental: (§3) Affinity constants are also determined for binding of the IGF antibodies to human IGF-1 and IGF-2 using a method where the IGF ligands are coated to the Biacore sensor chip and a range of antibody concentrations injected. The approximately 30-50-fold increase in the binding constants using this method compared with the initial antibody capture method is likely due to an avidity effect where both antibody binding domains interact with an IGF molecule.

[16] = target: T4, recombinant human IGF-2; assay: as above
Experimental: as §3

[17] = target: T7, recombinant human IGF-1; assay: SPR (Biacore), IGF coating method, bivalent antibody injected (avidity); IGF coated on the chip, bivalent antibody injected (avidity)
[18] = target: T3, biotinylated IGF-1; assay: competition ELISA: antibody titrated against biotinylated IGF-1 binding to coated IGF-1R; antibody 40186; mass concentration

T6 sequence (P01346 25-91 limits assumed): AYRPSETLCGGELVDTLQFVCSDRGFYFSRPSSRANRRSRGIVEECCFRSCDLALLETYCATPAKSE
T1 sequence (P08025 49-118 limits assumed): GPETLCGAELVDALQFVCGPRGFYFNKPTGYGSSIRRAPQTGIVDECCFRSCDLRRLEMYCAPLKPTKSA
Sequence of recombinant human insulin (P01308 25-54 limits assumed, chain 1 of 2): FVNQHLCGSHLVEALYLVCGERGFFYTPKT
Sequence of recombinant human insulin (P01308 90-110 limits assumed, chain 2 of 2): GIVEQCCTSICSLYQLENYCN

B1: antibody 40183 (antibody, human IgG1, lambda, V domains shown)
VH: QVELVESGGGLVQPGGSLRLSCAASGFTWSSFAMSWVRQAPGKGLEWVSYISYLGSYTGYADSVKGRFTISRDNSKNTLYLQMNSLRAEDTAVYYCARGTKFDYWGQGTLVTVSS
VL: DIVLTQPPSVSGAPGQRVTISCTGSSSNIGTYDVHWYQQLPGTAPKLLIYSNSKRPSGVPDRFSGSKSGTSASLAITGLQSEDEADYYCSITRVFGGGTKLTVLG
notes: Fully human IgG1 / Ig lambda
[1]
  binding result: no binding (tested: 100 ng/ml)
[2]
  binding result: binds
[3]
  binding result: binds
[4]
  IC50: ~5 ng/mL
[5]
  IC50 (read off the curve): ~3 ng/mL
[6]
  binding result: binds
[7]
  binding result: binds
[8]
  binding result: binds

B2: antibody 40186 (antibody, human IgG1, lambda, V domains shown)
VH: QVELVESGGGLVQPGGSLRLSCAASGFTFSNYWMHWVRQAPGKGLEWVSGISGWSSWTYYADSVKGRFTISRDNSKNTLYLQMNSLRAEDTAVYYCARFGIDAYTKVYFDYWGQGTLVTVSS
VL: DIELTQPPSVSVAPGQTARISCSGDNIPLKYVSWYQQKPGQAPVLVIHDDNKRPSGIPERFSGSNSGNTATLTISGTQAEDEADYYCQSWASTGVVFGGGTKLTVLG
notes: Fully human IgG1 / Ig lambda from the HuCAL Gold library
[1]
  binding result: no binding (tested: 100 ng/ml)
[9]
  Ka: 1.44e+08 M⁻¹
  Kd: 7.1 nM
  koff: 0.00329 s⁻¹
  kon: 466000 M⁻¹ s⁻¹
[10]
  Ka: 1.08e+08 M⁻¹
  Kd: 9.56 nM
  koff: 0.00586 s⁻¹
  kon: 632000 M⁻¹ s⁻¹
[11]
  Ka: 2.16e+08 M⁻¹
  Kd: 4.66 nM
  koff: 0.0027 s⁻¹
  kon: 581000 M⁻¹ s⁻¹
[12]
  Ka: 2.86e+08 M⁻¹
  Kd: 3.62 nM
  koff: 0.00362 s⁻¹
  kon: 1.03e+06 M⁻¹ s⁻¹
[13]
  Ka: 1.67e+08 M⁻¹
  Kd: 6.49 nM
  koff: 0.00351 s⁻¹
  kon: 602000 M⁻¹ s⁻¹
[14]
  Ka: 3.67e+08 M⁻¹
  Kd: 2.76 nM
  koff: 0.00301 s⁻¹
  kon: 1.1e+06 M⁻¹ s⁻¹
[15]
  Kd: 0.14 nM
  koff: 0.00023 s⁻¹
  kon: 2.1e+06 M⁻¹ s⁻¹
[16]
  Ka: 1.45e+10 M⁻¹
  Kd: 0.072 nM
  koff: 0.000164 s⁻¹
  kon: 2.26e+06 M⁻¹ s⁻¹
[17]
  Ka: 1.22e+10 M⁻¹
[5]
  IC50 (read off the curve): ~5 ng/mL
[18]
  IC50: ~5 ng/mL
